# Results as given in article PMC12543323, “IFIT1 is rapidly evolving and exhibits disparate antiviral activities across 11 mammalian orders”.
# T1: human IFIT1 (Homo sapiens, UniProt P09914 1-478)
# T1 sequence: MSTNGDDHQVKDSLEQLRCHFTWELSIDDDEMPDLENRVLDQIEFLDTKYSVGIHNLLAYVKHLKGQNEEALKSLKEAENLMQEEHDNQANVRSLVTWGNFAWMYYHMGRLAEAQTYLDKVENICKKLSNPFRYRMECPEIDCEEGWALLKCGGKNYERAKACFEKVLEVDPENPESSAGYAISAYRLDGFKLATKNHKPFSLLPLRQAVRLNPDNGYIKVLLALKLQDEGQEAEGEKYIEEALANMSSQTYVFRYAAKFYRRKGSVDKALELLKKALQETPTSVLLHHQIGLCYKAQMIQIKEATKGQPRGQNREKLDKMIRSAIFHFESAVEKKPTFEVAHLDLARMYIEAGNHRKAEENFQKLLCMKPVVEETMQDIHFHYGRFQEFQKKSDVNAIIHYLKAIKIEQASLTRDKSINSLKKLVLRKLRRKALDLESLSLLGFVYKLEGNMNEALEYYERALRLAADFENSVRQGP
# T2: human IFIT1 R187H (Homo sapiens, UniProt P09914 1-478, R187H)
# T2 sequence: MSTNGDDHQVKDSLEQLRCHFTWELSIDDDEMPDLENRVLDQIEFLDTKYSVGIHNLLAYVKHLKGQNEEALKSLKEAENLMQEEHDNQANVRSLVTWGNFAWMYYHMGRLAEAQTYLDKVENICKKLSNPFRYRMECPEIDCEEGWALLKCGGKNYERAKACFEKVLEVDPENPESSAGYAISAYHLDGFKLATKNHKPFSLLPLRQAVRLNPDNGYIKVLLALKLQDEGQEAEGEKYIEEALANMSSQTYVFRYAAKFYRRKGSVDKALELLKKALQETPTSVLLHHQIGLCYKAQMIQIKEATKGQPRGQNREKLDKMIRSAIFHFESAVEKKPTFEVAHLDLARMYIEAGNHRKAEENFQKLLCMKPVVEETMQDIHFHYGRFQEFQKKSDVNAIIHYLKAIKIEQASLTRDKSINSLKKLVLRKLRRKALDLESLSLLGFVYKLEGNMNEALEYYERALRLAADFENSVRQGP
# What was measured:
# human IFIT1 = target: T1, human IFIT1; test: EMSA; 50 mM Tris pH 8.0 ([…], room temperature 20 min; […]; settings: protein: recombinant; tags: N-terminal 6xHis-SUMO (smt3) removed by Ulp1; label: none (SYBR Gold post-stain)
# human IFIT1 R187H = target: T2, human IFIT1 R187H; test: as above; settings: protein: recombinant; tags: N-terminal 6xHis-SUMO (smt3) removed by Ulp1; label: none (SYBR Gold post-stain)
binder,measurement,setting,value
"AUAGGCGGCGCAUGAGAGAAGCCCAGACCAAUUACCUACCC (ssRNA, 5' Cap0 (m7GpppA, no 2'-O methylation; at least 95% by LC/MS)) [Cap0 VEEV TC-83 5' UTR RNA (41 nt)]",binding result,human IFIT1,binds
same,binding result,human IFIT1 R187H,no binding
